The target in assay [1] is human CD123 on cells (human) (UniProt P26951). The assay is described as follows: cell-based or functional assay.
For assay [2], the target named is human CD33 on cells (human) (UniProt P20138). The assay is described as follows: cell-based or functional assay.

From patent US20240092919A1 come the findings set out here.

human CD123 on cells (human), sequence (P26951 19-378 limits assumed): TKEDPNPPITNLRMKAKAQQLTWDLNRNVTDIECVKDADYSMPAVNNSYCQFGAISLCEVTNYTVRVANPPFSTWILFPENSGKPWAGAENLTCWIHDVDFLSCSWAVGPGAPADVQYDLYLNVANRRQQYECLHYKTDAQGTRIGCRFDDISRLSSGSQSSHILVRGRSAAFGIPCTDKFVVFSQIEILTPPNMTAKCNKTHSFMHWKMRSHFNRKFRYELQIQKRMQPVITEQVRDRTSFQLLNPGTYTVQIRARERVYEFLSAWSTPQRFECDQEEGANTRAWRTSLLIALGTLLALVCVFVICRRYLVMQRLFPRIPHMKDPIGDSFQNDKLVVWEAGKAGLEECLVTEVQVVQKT
human CD33 on cells (human), sequence (P20138 18-364): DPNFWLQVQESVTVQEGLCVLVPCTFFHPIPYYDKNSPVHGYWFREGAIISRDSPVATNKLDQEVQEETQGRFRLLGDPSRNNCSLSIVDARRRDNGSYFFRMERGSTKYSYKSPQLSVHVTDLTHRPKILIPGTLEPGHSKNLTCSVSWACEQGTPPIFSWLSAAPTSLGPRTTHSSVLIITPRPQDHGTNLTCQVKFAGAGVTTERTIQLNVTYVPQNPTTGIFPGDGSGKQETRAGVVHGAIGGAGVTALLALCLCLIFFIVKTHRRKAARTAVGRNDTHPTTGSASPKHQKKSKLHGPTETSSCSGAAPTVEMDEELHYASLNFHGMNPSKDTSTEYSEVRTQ

Take “CD33/CD3 BiTE AMG 330 (bispecific antibody)”: in assay [1], the % Lysis, human T cell mediated KG-1a cell killing worked out at 15% and the EC50 (M), flow cytometry based human T cell mediated KG-1a cell killing, E:T 10:1 was 8.7e-12 M. For the same substance, in assay [2], the % Lysis, human T cell mediated U-937 cell killing is 55% and the EC50 (M), flow cytometry based human T cell mediated U-937 cell killing, E:T 10:1 stood at 1.1e-11 M.
In the same order, the values of “CD123/CD3 DART MGD006 (bispecific antibody)” are 58%, 3e-12 M, 13% and 8.9e-13 M.
